Common to all, as to test: cell_activity
The test system of data set [1] is ZF-off targeting TAR1623 (table row SEQ 1605) (synthetic). The conditions noted are these: HLA-DR+ 10.56%; binding inferred from silencing.
For data set [2], the system named is ZF-off targeting TAR1607 (table row SEQ 1538) (synthetic). Conditions: HLA-DR+ 6.46%; binding inferred from silencing.
Data set [3] concerns ZF-off targeting TAR1648 (third row, 4.51%) (synthetic). The conditions noted are these: HLA-DR+ 4.51%; binding inferred from silencing.
Data set [4] concerns ZF-off targeting TAR1646 (table row SEQ 1547) (synthetic). Conditions: HLA-DR+ 3.88%; binding inferred from silencing.
For data set [5], the system named is ZF-off targeting TAR1604 (table row SEQ 1576) (synthetic). The conditions noted are these: HLA-DR+ 12.84%; binding inferred from silencing.
For data set [6], the system named is ZF-off targeting TAR1615 (table row SEQ 1601) (synthetic). Conditions: HLA-DR+ 4.50%; binding inferred from silencing.
The test system of data set [7] is ZF-off targeting TAR186 (table row SEQ 1553) (synthetic). Conditions: HLA-DR+ 7.53%; binding inferred from silencing.
Data set [8] has as its system ZF-off targeting TAR1655 (table row SEQ 1563) (synthetic). Conditions: HLA-DR+ 15.20%; binding inferred from silencing.
For data set [9], the system named is ZF-off targeting TAR1612 (table row SEQ 1599) (synthetic). Conditions: HLA-DR+ 12.50%; binding inferred from silencing.
Data set [10] deals with ZF-off targeting TAR1654 (table row SEQ 1572) (synthetic). Conditions: HLA-DR+ in primary human T cells, 2.64%; binding inferred from silencing.
In data set [11] the test system is ZF-off targeting TAR1649 (second row, 10.70%) (synthetic). The conditions noted are these: HLA-DR+ 10.70%; binding inferred from silencing.
For data set [12], the system named is ZF-off targeting TAR1616 (table row SEQ 1557) (synthetic). Conditions: HLA-DR+ 5.76%; binding inferred from silencing.
In data set [13] the test system is ZF-off targeting TAR1608 (table row SEQ 1608) (synthetic). The conditions noted are these: HLA-DR+ 12.05%; binding inferred from silencing.
For data set [14], the system named is ZF-off targeting TAR1650 (table row SEQ 1549) (synthetic). The conditions noted are these: HLA-DR+ 13.65%; binding inferred from silencing.

In the case of “GGAGGGGGAGAAGTCAGAG (double strand) [TAR1623]”, the activity (fraction of off-target control) in [1] worked out at 0.3.

Sequence “AGGGCACGAGGAGGGGCTG (double strand) [TAR1607]” registered an activity (fraction of off-target control) in data set [2] of 0.18.

On to “GAGAGCCTCTGCTGGGGAC (double strand) [TAR1648]”, for which, in data set [3], the activity (fraction of off-target control) came to 0.13.

The sequence “GTGGTATCAAGGAGGAAGT (double strand) [TAR1646]” had an activity (fraction of off-target control) in [4] of 0.11.

In data set [5], “GAGGCATCTGGGCGGAGGG (double strand) [TAR1604]” displayed an activity (fraction of off-target control) of 0.37.

In [6], “GACGGGGGAACAGATGGTG (double strand) [TAR1615]” returned an activity (fraction of off-target control) of 0.13.

On to “GAGGCTGTGTGCTTCTGAG (double strand) [TAR186]”, for which the activity (fraction of off-target control) in data set [7] was 0.22.

“TGGGTATGGAGTGGAGTCT (double strand) [TAR1655]”: the activity (fraction of off-target control) in [8] came to 0.43.

In [9], “GCAGCTGGGGAGAGCTGGC (double strand) [TAR1612]” showed an activity (fraction of off-target control) of 0.36.

In turn, “GACAGGTAGGACCCAGCAG (double strand) [TAR1654]” gave an activity (fraction of off-target control) in data set [10] of 0.08.

In turn, “ACAGAAAGTCTGTTGGGGG (double strand) [TAR1649]” had an activity (fraction of off-target control) in [11] of 0.31.

In [12], “GAACAGATGGTGGGAAGAG (double strand) [TAR1616]” showed an activity (fraction of off-target control) of 0.16.

Consider “GGAGCTGCTGCCTGGCTGG (double strand) [TAR1608]”, for which the activity (fraction of off-target control) in data set [13] was 0.34.

“GAATTTGGTGAAGACAGAA (double strand) [TAR1650]” showed an activity (fraction of off-target control) in data set [14] of 0.39.
